First the molecules themselves.
T1: huSOX3 with C-terminal 6×His-tag, produced by Biointron (human, UniProt P41225 1-446)
T1 sequence: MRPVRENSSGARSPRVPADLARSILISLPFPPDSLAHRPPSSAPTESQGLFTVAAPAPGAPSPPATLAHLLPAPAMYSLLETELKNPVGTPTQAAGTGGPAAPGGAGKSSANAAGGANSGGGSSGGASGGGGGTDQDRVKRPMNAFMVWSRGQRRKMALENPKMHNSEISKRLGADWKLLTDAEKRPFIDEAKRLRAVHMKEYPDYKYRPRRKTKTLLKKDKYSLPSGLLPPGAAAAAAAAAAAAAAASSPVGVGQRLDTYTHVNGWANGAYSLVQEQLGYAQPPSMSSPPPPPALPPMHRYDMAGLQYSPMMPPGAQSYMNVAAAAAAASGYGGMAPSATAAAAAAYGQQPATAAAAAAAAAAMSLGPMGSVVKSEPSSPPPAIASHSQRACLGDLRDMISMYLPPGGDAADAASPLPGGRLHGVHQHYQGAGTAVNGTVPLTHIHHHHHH

B1: 2E8 with N-terminal NanoLuc tag (pNLF1-N-2E8), expressed in HEK293T cells (VHH)
VHH: EVQLVESGGGLVQPGGSLRLSCAASGFTLDYYGMGWFRQAPGKEREFVAAISRSGGSTVYADSVKGRFTISADNSKNTAYLQMNSLKPEDTAVYYCAREVVRGGINYWGQGTLVTVSS
notes: NanoBRET donor construct; not shown: NanoLuc tag
B2: 3H9 with N-terminal NanoLuc tag (pNLF1-N-3H9), expressed in HEK293T cells (VHH)
VHH: QVQLVESGGEQVQPGSSLKLSCSVSGLMISGHAMSWVRQVPGAGPEWVAVDNPGGKKNYIDSVAGRFTIARDNDANSLSLVMNGLRPEDTARYFCARVLSFKIYGGDKWALEWDYRGPGTQVTVSS
notes: as for B1
B3: 3F11 with N-terminal NanoLuc tag (pNLF1-N-3F11), expressed in HEK293T cells (VHH)
VHH: DVQLVESGGGLVQPGGSLRLSCATSGFTFSSSTMSWVRQVPGAGPEWVAVDNPGGKKNYIDSVAGRFTIARDNDANSLSLVMNGLRPEDTARYFCARVLSFKIYEGDKWALEWDYRGPGTQVTVSS
notes: as for B1
B4: 1C4 (anti-huSOX2 VHH antibody clone) (VHH)
VHH: EVQLVESGGGLVQPGGSLRLSCAASGGGFRGNAVMGWFRQAPGKERELVAAIRGSGEDTYYADSVKGRFTISADNSKNTAYLQMNSLKPEDTAVYYCAGGWRRGYFQDWGQGTLVTVSS
notes: Clone from the VHH phage library panning; tested as individual colony in ELISA screening
B5: 1B9 (anti-huSOX2 VHH antibody clone) (VHH)
VHH: EVQLVESGGGLVQPGGSLRLSCAASGLTFSTYSMGWFRQAPGKEREFVAAITWNSGRRTYYADSVKGRFTISADNSKNTAYLQMNSLKPEDTAVYYCASRVDDRVWGQGTLVTVSS
notes: as for B4
B6: 2E8 (anti-huSOX2 VHH antibody clone) (VHH)
VHH: EVQLVESGGGLVQPGGSLRLSCAASGFTLDYYGMGWFRQAPGKEREFVAAISRSGGSTVYADSVKGRFTISADNSKNTAYLQMNSLKPEDTAVYYCAREVVRGGINYWGQGTLVTVSS
notes: as for B4
B7: 1C2 (anti-huSOX2 VHH antibody clone) (VHH)
VHH: EVQLVESGGGLVQPGGSLRLSCAASGSTYTTYSMGWFRQAPGKEREFVAAIRWSGGTTYYADSVKGRFTISADNSKNTAYLQMNSLKPEDTAVYYCASRVDDRVWGQGTLVTVSS
notes: as for B4
B8: 1A5 (anti-huSOX2 VHH antibody clone) (VHH)
VHH: EVQLVESGGGLVQPGGSLRLSCAASGSTYTTYSMGWFRQAPGKEREFVGAIHWSGGRTYYADSVKGRFTISADNSKNTAYLQMNSLKPEDTAVYYCASRVDDRVWGQGTLVTVSS
notes: as for B4
B9: 1C11 (anti-huSOX2 VHH antibody clone) (VHH)
VHH: EVQLVESGGGLVQPGGSLRLSCAASGSTYTTYSMGWFRQAPGKEREFVGAIRWSGGTTYYADSVKGRFTISADNSKNTAYLQMNSLKPEDTAVYYCASRVDDRVWGQGTLVTVSS
notes: as for B4
B10: 1A9 (anti-huSOX2 VHH antibody clone) (VHH)
VHH: EVQLVESGGGLVQPGGSLRLSCAASGRTFSTYSMGWFRQAPGKEREFVAAIRWTAGTTYYADSVKGRFTISADNSKNTAYLQMNSLKPEDTAVYYCASRVDDRVWGQGTLVTVSS
notes: as for B4
B11: 1C12 (anti-huSOX2 VHH antibody clone) (VHH)
VHH: EVQLVESGGGLVQPGGSLRLSCAASGSTYTTYSMGWFRQAPGKEREFVAAIRWSGGSTHYADSVKGRFTISADNSKNTAYLQMNSLKPEDTAVYYCASRVDDRVWGQGTLVTVSS
notes: as for B4
B12: 1A11 (anti-huSOX2 VHH antibody clone) (VHH)
VHH: EVQLVESGGGLVQPGGSLRLSCAASGSTYTTYSMGWFRQAPGKEREFVAAIHWSGGGTYYADSVKGRFTISADNSKNTAYLQMNSLKPEDTAVYYCASRVDDRVWGQGTLVTVSS
notes: as for B4
B13: 3F11 (anti-huSOX2 VHH antibody) (VHH)
VHH: DVQLVESGGGLVQPGGSLRLSCATSGFTFSSSTMSWVRQVPGAGPEWVAVDNPGGKKNYIDSVAGRFTIARDNDANSLSLVMNGLRPEDTARYFCARVLSFKIYEGDKWALEWDYRGPGTQVTVSS
notes: Selected from a naive sdAb phage display library (Genscript Probio)
B14: 3A2.005 (Flag-tag - 3A2 - GS linker - SPOP 167-374) (other)
chain: DYKDDDDKTREVQLVESGGEQVQPGSSLKLSCSVSGLMISGHAMSWVRQVPGAGPEWVAVDNPGGKKNYIDSVAGRFTIARDNDANSLSLVMNGLRPEDTARYFCARVLSFKIYEGDKWALEWDYRGPGTQVTVSSGSSVNISGQNTMNMVKVPECRLADELGGLWENSRFTDCCLCVAGQEFQAHKAILAARSPVFSAMFEHEMEESKKNRVEINDVEPEVFKEMMCFIYTGKAPNLDKMADDLLAAADKYALERLKVMCEDALCSNLSVENAAEILILADLHSADQLKTQAVDFINYHASDVLETSGWKSMVVSHPHLVAEAYRSLASAQCPFLGPPRKRLKQS
B15: 3A2.012 (Flag-tag - 3A2 - GS linker - RNF4 71-190) (other)
chain: DYKDDDDKTREVQLVESGGEQVQPGSSLKLSCSVSGLMISGHAMSWVRQVPGAGPEWVAVDNPGGKKNYIDSVAGRFTIARDNDANSLSLVMNGLRPEDTARYFCARVLSFKIYEGDKWALEWDYRGPGTQVTVSSGSDERRRPRRNARRLPQDHADSCVVSSDDEELSRDRDVYVTTHTPRNARDEGATGLRPSGTVSCPICMDGYSEIVQNGRLIVSTECGHVFCSQCLRDSLKNANTCPTCRKKINHKRYHPIYI
B16: 3A2.007 (Flag-tag - 3A2 - GS linker - CHIP 128-303) (other)
chain: DYKDDDDKTREVQLVESGGEQVQPGSSLKLSCSVSGLMISGHAMSWVRQVPGAGPEWVAVDNPGGKKNYIDSVAGRFTIARDNDANSLSLVMNGLRPEDTARYFCARVLSFKIYEGDKWALEWDYRGPGTQVTVSSGSRLNFGDDIPSALRIAKKKRWNSIEERRIHQESELHSYLSRLIAAERERELEECQRNHEGDEDDSHVRAQQACIEAKHDKYMADMDELFSQVDEKRKKRDIPDYLCGKISFELMREPCITPSGITYDRKDIEEHLQRVGHFDPVTRSPLTQEQLIPNLAMKEVIDAFISENGWVEDY
B17: 3A2.011 (Flag-tag - TRIM21 2-85 - GS linker - 3A2) (other)
chain: DYKDDDDKTRASAARLTMMWEEVTCPICLDPFVEPVSIECGHSFCQECISQVGKGGGSVCPVCRQRFLLKNLRPNRQLANMVNNLKEISQEAREGSEVQLVESGGEQVQPGSSLKLSCSVSGLMISGHAMSWVRQVPGAGPEWVAVDNPGGKKNYIDSVAGRFTIARDNDANSLSLVMNGLRPEDTARYFCARVLSFKIYEGDKWALEWDYRGPGTQVTVSS

For one assay, the target named is T2, huSOX2 protein with N-terminal Halo tag (pHTN vector), expressed in HEK293T cells (human, UniProt P48431 1-317, HaloTag 618 ligand bound to the Halo tag).
T2 construct: Expressed inside HEK293T cells (NanoBRET); not shown: Halo tag
T2 sequence (P48431 whole entry): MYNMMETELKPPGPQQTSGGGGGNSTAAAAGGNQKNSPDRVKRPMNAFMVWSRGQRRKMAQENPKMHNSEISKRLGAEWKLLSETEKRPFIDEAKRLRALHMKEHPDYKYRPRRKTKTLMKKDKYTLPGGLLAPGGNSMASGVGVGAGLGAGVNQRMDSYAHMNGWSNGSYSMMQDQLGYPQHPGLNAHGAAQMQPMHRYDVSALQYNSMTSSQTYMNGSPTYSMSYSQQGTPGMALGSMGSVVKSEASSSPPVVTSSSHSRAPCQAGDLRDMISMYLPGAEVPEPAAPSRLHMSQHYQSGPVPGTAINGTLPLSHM
In words: NanoBRET in HEK293T cells, NanoLuc-VHH and Halo-huSOX2. For orientation: BRET reads energy transfer from a luciferase to a nearby fluorophore.
As for B1, the binding result was “binds”.

In the case of B2, the binding result is reported as “binds”.

Regarding B3, the binding result is “binds”.

In a further assay the target is T3, human SRY-box transcription factor 2 (huSOX2) with C-terminal 6×His-tag, produced by Biointron (human, UniProt P48431 1-317).
T3 construct: also called huSOX2 protein; biotinylated huSOX2 (Biointron)
T3 sequence (P48431 other isoform, or with tags, fused parts or gaps limits assumed): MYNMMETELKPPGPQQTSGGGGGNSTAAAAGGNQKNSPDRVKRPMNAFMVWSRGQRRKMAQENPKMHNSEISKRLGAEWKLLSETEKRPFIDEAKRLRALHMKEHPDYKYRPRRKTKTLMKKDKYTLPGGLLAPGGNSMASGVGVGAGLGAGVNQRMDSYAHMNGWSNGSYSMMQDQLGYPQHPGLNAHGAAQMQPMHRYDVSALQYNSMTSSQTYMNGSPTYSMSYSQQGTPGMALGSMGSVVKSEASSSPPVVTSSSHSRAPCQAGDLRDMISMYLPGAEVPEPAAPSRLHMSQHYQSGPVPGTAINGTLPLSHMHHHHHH
In words: 96-well ELISA screening of individual colonies, 20 ug/mL huSOX2.
Take B4: the binding result was “binds”.

Regarding B5, the binding result is recorded as “binds”.

Consider B6, for which the binding result was “binds”.

In the case of B7, the binding result is recorded as “binds”.

As for B8, the binding result is given as “binds”.

Regarding B9, the binding result was “binds”.

On to B10, for which the binding result was “binds”.

In the case of B11, the binding result is “binds”.

For the molecule B12, the binding result is recorded as “binds”.

In a further assay the target is T3, human SRY-box transcription factor 2 …. In words: selection from a naive sdAb phage display library, three rounds of panning.
As to B13, the binding result was “binds”.

In a further assay the target is CynoSOX2 with C-terminal 6×His-tag, produced by Biointron (cyno, UniProt P48431 45-317 (human entry), limits assumed). The assay is described as above.
Chain of CynoSOX2 with C-terminal 6×His-tag, produced by Biointron (P48431 other isoform, or with tags, fused parts or gaps limits assumed): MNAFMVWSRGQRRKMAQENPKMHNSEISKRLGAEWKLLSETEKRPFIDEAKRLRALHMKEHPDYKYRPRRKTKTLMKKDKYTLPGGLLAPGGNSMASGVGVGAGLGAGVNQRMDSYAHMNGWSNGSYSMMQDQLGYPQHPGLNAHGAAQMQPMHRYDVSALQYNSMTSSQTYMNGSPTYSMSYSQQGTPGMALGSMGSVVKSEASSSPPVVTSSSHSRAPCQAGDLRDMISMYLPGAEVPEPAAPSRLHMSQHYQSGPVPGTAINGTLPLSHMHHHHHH
Turning to B13, the binding result is reported as “binds”.

A further assay has as its target T1, huSOX3 with C-terminal 6×His-tag, …. Described as above.
On to B13, for which the binding result is on record as “no binding”.

The target in a further assay is huSOX2.V5 (huSOX2 with a V5-tag at the C-terminus) (human, UniProt P48431 1-317). In words: cell-based or functional assay.
Chain of huSOX2.V5 (huSOX2 with a V5-tag at the C-terminus) (P48431 other isoform, or with tags, fused parts or gaps): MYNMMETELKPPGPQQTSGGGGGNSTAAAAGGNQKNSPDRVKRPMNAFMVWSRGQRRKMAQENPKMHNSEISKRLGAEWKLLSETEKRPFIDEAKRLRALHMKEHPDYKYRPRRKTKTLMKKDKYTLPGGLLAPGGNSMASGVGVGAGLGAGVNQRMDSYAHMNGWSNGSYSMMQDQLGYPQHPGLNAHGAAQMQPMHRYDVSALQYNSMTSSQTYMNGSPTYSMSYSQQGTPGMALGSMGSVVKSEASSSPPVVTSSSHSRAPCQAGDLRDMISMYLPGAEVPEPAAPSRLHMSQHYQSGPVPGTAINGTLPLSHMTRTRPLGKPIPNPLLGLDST
For B14, the “SOX2 degradation capability compared to the control group (Mock) (HEK-293 cells)” value was not below 70%.

With B15, the “SOX2 degradation capability compared to the control group (Mock) (HEK-293 cells)” value was not below 70%.

As to B16, the “SOX2 degradation capability compared to the control group (Mock) (HEK-293 cells)” value is not below 70%.

Take B17: the “SOX2 degradation capability compared to the control group (Mock) (HEK-293 cells)” value is not below 70%.
